{
  "source": "patent US8846873B2",
  "about": "“Antibodies directed to GPNMB and uses thereof” (Celldex Therapeutics, Inc., priority 2004, dated 2014)",
  "key": {"[1]": {"system": "CG56972-expressing cells", "experiment": "Internalization of cell surface bound antibodies (flow cytometry)", "assay_type": "cell-based", "details": "incubation with CG56972-expressing cells", "procedure": "Internalization of cell surface bound antibodies was assessed by a modified flow cytometry procedure. […] After washing cells, incubation was shifted to 37° C. for 1 hr to allow internalization of bound antibodies. Cells that remained on ice (total surface bound) or that were incubated at 37° C. […] Labeled cells were analyzed by flow cytometry as described above. The percentage of antibody internalized was determined using the GMRs and the following formula: Percent internalized=Total surface bound (4° C.)−Total surface bound (37° C.)/Total surface bound (4° C.)×100"}, "[2]": {"system": "SK-MEL-2 melanoma xenografts", "experiment": "Human SK-MEL-2 melanoma xenograft in athymic mice", "assay_type": "in vivo", "details": "CR011-ONC-1, CR011-vcMMAE 5 mg/kg/treatment i.v. q4d x4, components at doses identical to those in the immunoconjugate", "procedure": "Test Animals: Five- to 6-week old athymic mice (CD-1 nu/nu females), used for human tumor xenografts, were obtained from Harlan Laboratories (Indianapolis, Ind.). Animals were housed in specific pathogen-free conditions, according to the guidelines of the Association for Assessment and Accreditation of Laboratory Animal Care International (AAALAC International). Test animals were provided pelleted food and water ad libitum and kept in a room with conditioned ventilation (HVAC), temperature (22°±2° C.), relative humidity (55%±15%), and photoperiod (12 hr). All studies were carried out with approved institutional animal care and use protocols.\nHuman Melanoma Xenograft Models. The tumor inhibitory activity of the CR011-MMAE immunoconjugate was measured in an anti-tumor xenograft model using athymic mice, according to published methods (see Geran et al., Cancer Chemother. Rep. 3:1-104 (1972)). […] When tumors became established (10-20 days), the animals were pair-matched into groups (n=6 mice/group), and treatment was administered by intravenous injection (tail vein). […]\nThe effects of treatment were monitored by repetitive tumor measurements across 2 diameters with Vernier calipers; tumor size (in mg) was calculated using a standard formula, (W^2×L)/2, assuming a specific gravity of 1.0. Tumor size and body weights were assessed twice weekly. […]"}, "[3]": {"system": "TK-10 cells", "experiment": "Apoptosis analysis (Annexin V-FITC / propidium iodide)", "assay_type": "cell-based, human", "details": "TK-10, 48 hour, 1000 ng/mL", "procedure": "(§1) Briefly, cells were pulsed at the indicated times with 30 μM of bromodeoxyuridine (BrdU, Sigma) for 30 min, harvested, fixed and permeabilized in methanol. Nascent DNA synthesis was detected by anti-bromodeoxyuridine-FITC (BD Biosciences, San Jose, Calif.) staining. Total DNA content was detected using propidium iodide (PI, Sigma). For apoptosis analysis, cells were treated as above and labeled with Annexin V-FITC followed by propidium iodide exclusion using the Annexin V-FITC Apoptosis Detection kit I (BD PharMingen, San Diego, Calif.) according to the manufacturer's protocols. Flow cytometry (as described in the previous Example) was used to assay both cell cycle and apoptosis studies.\n(§2) To investigate this possibility, analysis of apoptosis using Annexin-V surface binding and loss of propidium iodide (PI) exclusion was performed."}, "[4]": {"system": "SK-Mel-2 cells", "experiment": "Apoptosis analysis (Annexin V-FITC / propidium iodide)", "assay_type": "cell-based, human", "details": "SK-Mel-2, 48 hour, 1000 ng/mL", "procedure": "as §1, §2"}, "[5]": {"system": "TK10", "experiment": "Anti GPNMB antibody mediated indirect cell killing (saporin secondary antibody-toxin conjugate, colony count)", "assay_type": "cell-based", "details": "primary antibody 50 ng/mL plus goat anti-human IgG-saporin 100 ng/well", "procedure": "UACC-62, a GPNMB antigen expressing cell line, and TK10, a non-expressing cell line were plated onto flat bottom 96-well tissue culture plates (Becton Dickinson, Franklin Lakes, N.J., USA) at a density of 3000 cells per well. Once the cells reached ˜25% confluency, 100 ng/well of secondary antibody-toxin conjugate (goat anti-human IgG-saporin; Advanced Targeting Systems, San Diego, USA, HUM-ZAP; cat. # IT-22) was added. Anti-GPNMB MAbs 2.10.2, 2.22.1, 1.15.1 or isotype control mAb (pK16.3) were added to each well at a final concentration of 10 or 50 ng/mL. An anti-EGFR monoclonal antibody (MS-269-PABX, NeoMarkers, Fremont, Calif., USA) was used as a positive primary antibody control. Chemotherapy reagent 5-FU at 600 uM was used as a positive reagent control. On day 5, the cells were trypsinized, transferred to 6-well tissue culture plates and incubated at 37° C. Plates were examined daily and between 8-10 days, all plates were Giemsa stained and colonies were counted."}, "[6]": {"system": "CG56972-expressing cancer cell lines", "experiment": "Growth of CG56972-expressing cancer cell lines with naked CR011 or CR011 plus saporin-conjugated secondary antibody", "assay_type": "cell-based", "details": "for effect on CG56972 expressing cells / growth, naked antibody: used directly", "from_the_text": "Fully human monoclonal antibodies (mAb)-IgG2 to CG56972/GPNMB, an antigen predominantly found on the surface of melanoma and brain tumor cells, were generated. The naked CR0111gG2 mAb (mAb 1.15) had no effect on CG56972 expressing cells either in vitro or in vivo. Thus we examined whether isotype switching from an IgG2 to an IgG1 might enable the mAb to kill human melanoma cells through ADCC effector functions."}},
  "data": [
    {"molecule": "Mab1.15.1 (protein, listed as Homo sapiens) QVQLQESGPGLVKPSQTLSLTCTVSGGSISSFNYYWSWIRHHPGKGLEWIGYIYYSGSTYSNPSLKSRVTISVDTSKNQFSLTLSSVTAADTAVYYCARGYNWNYFDYWGQGTLVTVSSA", "values": [
      {"measurement": "internalization", "setting": "[1]", "result": "internalized"},
      {"measurement": "tumor response", "setting": "[2]; listed as CR011 antibody alone", "result": "lack of tumor growth inhibition"},
      {"measurement": "tumor response", "setting": "[2]; listed as unconjugated CR011", "result": "lack of responses"},
      {"measurement": "% AnnV+/PI+ UR", "setting": "[3]", "result": 0.34, "unit": "%"},
      {"measurement": "% AnnV+/PI− LR", "setting": "[3]", "result": 0.55, "unit": "%"},
      {"measurement": "% AnnV−/PI+ UL", "setting": "[3]", "result": 0.83, "unit": "%"},
      {"measurement": "% AnnV+/PI+ UR", "setting": "[4]", "result": 0.45, "unit": "%"},
      {"measurement": "% AnnV+/PI− LR", "setting": "[4]", "result": 4.74, "unit": "%"},
      {"measurement": "% AnnV−/PI+ UL", "setting": "[4]", "result": 0.36, "unit": "%"},
      {"measurement": "cell death in GPNMB negative TK10 cells", "setting": "[5]", "result": "less than 24%"},
      {"measurement": "growth of CG56972-expressing cancer cells", "setting": "[6]; combined with saporin-conjugated secondary antibody", "result": "could specifically inhibit the growth"},
      {"measurement": "effect on CG56972 expressing cells / growth, naked antibody", "setting": "[6]", "result": "no effect"},
      {"measurement": "effect on CG56972 expressing cells / growth, naked antibody", "setting": "[6]; listed as CR011", "result": "did not inhibit the growth"}
    ]}
  ]
}
